According to publication PMC4339722, “Analysis of the Link between the Redox State and Enzymatic Activity of the HtrA (DegP) Protein from Escherichia coli” (PLoS ONE, 2015):

Target: the molecule itself
Assay: cross-linking + SEC; with 2.5-, 5- or 10-fold molar excess of the 22-peptide …; HtrA variants 10 μM monomer, 15 min 37°C then 10 h 4°C in 20 mM HEPES-NaOH pH 8.0, 100 mM NaCl; BS^3 0.45 mM, 30 min room temperature; Superose 12 10/300 GL, 25°C

B1: HtrA-S210A (oxidized control variant, as used in cross-linking and SEC) (enzyme, Escherichia coli, UniProt P0C0V0 27-474, looked up)
chain: AETSSATTAQQMPSLAPMLEKVMPSVVSINVEGSTTVNTPRMPRNFQQFFGDDSPFCQEGSPFQSSPFCQGGQGGNGGGQQQKFMALGSGVIIDADKGYVVTNNHVVDNATVIKVQLSDGRKFDAKMVGKDPRSDIALIQIQNPKNLTAIKMADSDALRVGDYTVAIGNPFGLGETVTSGIVSALGRSGLNAENYENFIQTDAAINRGNAGGALVNLNGELIGINTAILAPDGGNIGIGFAIPSNMVKNLTSQMVEYGQVKRGELGIMGTELNSELAKAMKVDAQRGAFVSQVLPNSSAAKAGIKAGDVITSLNGKPISSFAALRAQVGTMPVGSKLTLGLLRDGKQVNVNLELQQSSQNQVDSSSIFNGIEGAEMSNKGKDQGVVVNNVKTGTPAAQIGLKKGDVIIGANQQAVKNIAELRKVLDSKPSVLALNIQRGDSTIYLLMQ
modifications: disulfide bond Cys57-Cys69 (oxidized)
notes: HtrA (DegP) serine protease, Escherichia coli; polypeptide chain of 448 residues as printed; also called oxidized control (S210A); control HtrA
- stoichiometry N: 12
